In the supplement of paper PMC7877785:
± gives the uncertainty stated by the source.

Assay: self-splicing fitness, log relative to wild type (ln ratio); higher = more splicing; Tetrahymena group I intron in knt gene, E. coli kanamycin selection, DiMSum; sequences stand for … in CUCUCU…GGAGGGAAAAGUUAUCAGGCAUGCACCUGGUAGCUAGUCUUUAAACCAAUAGAUUGCAUCGGUUUAAAAGGCAAGACCGUCAAAUUGCGGGAAAGGGGUCAACAGCCGUUCAGUACCAAGUCUCAGGGGAAACUUUGAGAUGGCCUUGCAAAGGGUAUGGUAAUAAGCUGACGGACAUGGUCCUAACCACGCAGCCAAGUCCUAAGUCAACAGAUCUUCUGUUGAUAUGGAUGCAGUUCACAGACUAAAUGUCGGUCGGGGAAGAUGUAUUCUUCUCAUAAGAUAUAGUCGGACCUCUCCUUAAUGGGAGCUAGCGGAUGAAGUGAUGCAACACUGGAGCCGCUGGGAACUAAUUUGUAUGCGAAAGUAUAUUGAUUAGUUUUGGAGUACUCGUGGUCG
Summary of the method: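 Pooled colonies went to amplicon sequencing on an Illumina HiSeq 2500 after six replicate transformations. The plates were LB agar with 100 μg/mL carbenicillin, 50 μM IPTG and 0.2% rhamnose, with or without 25 μg/mL kanamycin, incubated overnight at 37°C or 30°C. The E. coli BL21(DE3) library had all eight P1ex-region intron nucleotides randomised, the intron placed in the knt kanamycin-resistance gene on pET-22b(+). DiMSum fitness is the error-weighted combination of replicate fold changes, kanamycin against none, normalised to wild type.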

Sequence | self-splicing fitness (ln) (30 °C) | self-splicing fitness (ln) (37 °C)
CCAGAGCAAUAUUACGGCGG | -3.72 ± 0.18 | -1.92 ± 0.24
UCGUAGCAAUAUUACGACCG | -1.23 ± 0.18 | -0.438 ± 0.34
AAUCAGCAAUAUUACGUAGC | -1.93 ± 0.093 | -0.229 ± 0.12
AUCGAGCAAUAUUACGACUU | -0.779 ± 0.15 | -0.826 ± 0.19
CGGUAGCAAUAUUACGCAUC | – | -2.58 ± 0.21
CCCAAGCAAUAUUACGACAC | -2.66 ± 0.2 | -3.25 ± 0.43
ACUAAGCAAUAUUACGGCCG | -0.147 ± 0.087 | -0.306 ± 0.12
ACAGAGCAAUAUUACGAUGU | -3.39 ± 0.16 | -2.38 ± 0.18
CUUAAGCAAUAUUACGGCUG | -1.38 ± 0.13 | -1.07 ± 0.17
CCUAAGCAAUAUUACGUUGA | -3.74 ± 0.25 | -1.94 ± 0.17
UUCGAGCAAUAUUACGCGUG | -1.06 ± 0.13 | -0.676 ± 0.14
GAUAAGCAAUAUUACGGUUG | -2.65 ± 0.12 | -1.26 ± 0.11
ACGUAGCAAUAUUACGAUGG | -3.99 ± 0.35 | -1.52 ± 0.29
CGAUAGCAAUAUUACGACAA | -3.4 ± 0.34 | -2.35 ± 0.27
AUAAAGCAAUAUUACGCAUC | -3.37 ± 0.26 | -1.74 ± 0.3
ACUCAGCAAUAUUACGCAUA | -1.35 ± 0.082 | -0.543 ± 0.094
AUCUAGCAAUAUUACGAGGC | – | -2.69 ± 0.34
CCCCAGCAAUAUUACGCUUA | -3.59 ± 0.17 | -2.66 ± 0.17
GAUCAGCAAUAUUACGCCUU | -0.124 ± 0.12 | 0.438 ± 0.14
UGAGAGCAAUAUUACGUGUA | -2.07 ± 0.13 | –
GCAGAGCAAUAUUACGGACG | – | -2.96 ± 0.29
GUACAGCAAUAUUACGGUAC | -4.08 ± 0.43 | -2.8 ± 0.26
GCAUAGCAAUAUUACGACGA | -1.06 ± 0.14 | -0.364 ± 0.14
AACCAGCAAUAUUACGCUGG | -2.8 ± 0.14 | -2.25 ± 0.19
UCUCAGCAAUAUUACGUGGC | -3.61 ± 0.31 | -2.55 ± 0.28
AAAGAGCAAUAUUACGAAGU | -3.28 ± 0.38 | -2.05 ± 0.32

Sequence | self-splicing fitness (ln) (30 °C) | self-splicing fitness (ln) (37 °C)
CGUCAGCAAUAUUACGGUAA | -1.1 ± 0.26 | -1.3 ± 0.23
AUUAAGCAAUAUUACGCUCC | -1.04 ± 0.23 | -0.859 ± 0.29
AGUGAGCAAUAUUACGUAUG | – | -2.56 ± 0.32
GCCCAGCAAUAUUACGAGAU | -1.54 ± 0.12 | -0.957 ± 0.091
AUUGAGCAAUAUUACGCAAG | -3.27 ± 0.19 | -1.31 ± 0.18
AUCAAGCAAUAUUACGAUAA | -1.99 ± 0.11 | -0.292 ± 0.092
UGCUAGCAAUAUUACGACCA | 0.141 ± 0.17 | 0.148 ± 0.27
GUAAAGCAAUAUUACGCCUC | -0.782 ± 0.12 | 0.463 ± 0.16
CUAAAGCAAUAUUACGAGAU | -2.72 ± 0.16 | -2.05 ± 0.23
GUUGAGCAAUAUUACGUCAC | -3.41 ± 0.43 | -1.86 ± 0.23
GCCGAGCAAUAUUACGACUG | -2.66 ± 0.23 | -3.53 ± 0.42
CGUCAGCAAUAUUACGUUAA | -3.28 ± 0.17 | -2.38 ± 0.14
GACCAGCAAUAUUACGCGUU | -3.49 ± 0.12 | -2.54 ± 0.14
AUCGAGCAAUAUUACGUAGU | -3.47 ± 0.14 | -1.96 ± 0.15
AGUUAGCAAUAUUACGUCCU | 0.147 ± 0.09 | 0.0687 ± 0.091
CGGAAGCAAUAUUACGUUGA | -3.33 ± 0.16 | -2.65 ± 0.15
UUCUAGCAAUAUUACGACAU | -2.324 ± 0.019 | -1.57 ± 0.034
AGCUAGCAAUAUUACGUAAG | -2.91 ± 0.12 | -1.71 ± 0.14
GGCCAGCAAUAUUACGCCGC | -4.33 ± 0.39 | –
CAGAAGCAAUAUUACGGUCU | -1.52 ± 0.064 | -1.09 ± 0.082
GGUUAGCAAUAUUACGCAUC | -0.527 ± 0.33 | -0.989 ± 0.38
GGGUAGCAAUAUUACGGGUG | -4.22 ± 0.36 | -2.68 ± 0.22
UCCGAGCAAUAUUACGUAGG | -2.69 ± 0.16 | -2 ± 0.25
GCUGAGCAAUAUUACGUCGU | -2.05 ± 0.097 | -1.52 ± 0.12
AAUGAGCAAUAUUACGAUGG | -1.98 ± 0.13 | -2.1 ± 0.26
UAUAAGCAAUAUUACGGCGU | -0.993 ± 0.093 | -0.232 ± 0.12

Sequence | self-splicing fitness (ln) (30 °C) | self-splicing fitness (ln) (37 °C)
AACCAGCAAUAUUACGCAAU | -1.86 ± 0.081 | -0.25 ± 0.098
AUGGAGCAAUAUUACGGUCG | -2.63 ± 0.18 | -0.839 ± 0.12
AUUAAGCAAUAUUACGCUAA | -1.89 ± 0.17 | -0.434 ± 0.13
GCUAAGCAAUAUUACGUGGA | -2 ± 0.093 | -1.7 ± 0.092
UUAGAGCAAUAUUACGACCC | -2.63 ± 0.49 | -1.74 ± 0.49
AAAAAGCAAUAUUACGGCCA | -0.43 ± 0.11 | -0.0922 ± 0.15
CGGAAGCAAUAUUACGCAGU | -2.73 ± 0.14 | -2.25 ± 0.21
ACUCAGCAAUAUUACGUUUC | -2.88 ± 0.17 | -2.33 ± 0.21
UGAUAGCAAUAUUACGCUAA | -1.82 ± 0.2 | -0.0947 ± 0.25
CCGUAGCAAUAUUACGAGUU | -3.11 ± 0.15 | -3.07 ± 0.18
CAUUAGCAAUAUUACGUCGU | -4.03 ± 0.26 | -0.437 ± 0.17
ACUCAGCAAUAUUACGCCGU | -1.24 ± 0.076 | -0.58 ± 0.093
UCUUAGCAAUAUUACGCGUC | -4.03 ± 0.33 | –
CGAUAGCAAUAUUACGCGUC | – | -1.76 ± 0.47
UCCGAGCAAUAUUACGACGA | -0.666 ± 0.086 | 0.401 ± 0.11
UUUUAGCAAUAUUACGGUGU | -3.34 ± 0.38 | –
GGUGAGCAAUAUUACGGGGU | -3.31 ± 0.17 | -2.94 ± 0.26
CUGUAGCAAUAUUACGACGG | -2.64 ± 0.23 | -1.07 ± 0.42
GGGUAGCAAUAUUACGGACA | -0.93 ± 0.093 | -0.223 ± 0.097
CAGAAGCAAUAUUACGUCGC | -3.55 ± 0.23 | -2.76 ± 0.28
AUAAAGCAAUAUUACGCAAA | -1.01 ± 0.1 | -1.03 ± 0.14
GGUGAGCAAUAUUACGCAGC | – | -1.93 ± 0.34
ACCUAGCAAUAUUACGCCAC | -2.11 ± 0.4 | –
CAGAAGCAAUAUUACGGCCG | -0.0187 ± 0.082 | -0.102 ± 0.14
CUAUAGCAAUAUUACGCACA | -2.35 ± 0.27 | -1.89 ± 0.25
AGGAAGCAAUAUUACGUAAA | -2.59 ± 0.18 | -1.88 ± 0.18
